Common to all, as to test: high-throughput RNA pulldown from lysate on Ni-NTA beads; HRP: 50 mM Tris pH 8, 150 mM NaCl, 1 mM beta-mercaptoethanol, 50 ug/ml BSA, 3 ug/ml yeast RNA, 0.5% heparin; ITC and FP: Tris pH 8, 200 mM KCl, 5% glycerol; MST: 50 mM Tris pH 8, 200 mM NaCl, 1 mM DTT, BSA, heparin, 0.05% Tween 20
What all share (conditions): tags: N-terminal His-eGFP

Data set [1] has as its target T1, GFP-9S library array, motif 4 ND N98P;D124N (synthetic construct, N98P;D124N).
T1 chain: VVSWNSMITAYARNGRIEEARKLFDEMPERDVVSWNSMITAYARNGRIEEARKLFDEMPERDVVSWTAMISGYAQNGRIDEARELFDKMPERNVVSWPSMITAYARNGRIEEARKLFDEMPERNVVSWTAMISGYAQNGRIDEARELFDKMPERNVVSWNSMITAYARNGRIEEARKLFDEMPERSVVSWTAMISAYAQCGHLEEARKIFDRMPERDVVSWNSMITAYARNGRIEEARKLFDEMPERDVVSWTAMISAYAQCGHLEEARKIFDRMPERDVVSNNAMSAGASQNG

Data set [2] has as its target T2, GFP-9S library array, motif 4 ND N98E;D124Y (synthetic construct, N98E;D124Y).
T2 chain: T1 chain with P98E, N124Y

Data set [3] deals with T3, GFP-9S library array, motif 4 ND D124E (synthetic construct, D124E).
T3 chain: T1 chain with P98N, N124E

Data set [4] addresses T4, GFP-9S library array, motif 4 ND N98D;D124W (synthetic construct, N98D;D124W).
T4 chain: T1 chain with P98D, N124W

For data set [5], the target named is T5, GFP-9S library array, motif 4 ND N98V;D124I (synthetic construct, N98V;D124I).
T5 chain: T1 chain with P98V, N124I

Changes are numbered by the printed parent chain.

Take AUUAAACGUGA (ssRNA) [IR-rpoA-A]: the Kd in data set [1] (label: 5' IRDye 800CW) was determined as 151 nM; in data set [2] (label: 5' IRDye 800CW), 450 nM; in data set [3] (label: 5' IRDye 800CW) it was 139 nM; in data set [4] (label: 5' IRDye 800CW), 572 nM; in data set [5] (label: 5' IRDye 800CW) it was 384 nM.

Turning to AUUAGACGUGA (ssRNA) [Cy5-rpoA-G], the Kd came out at 164 nM in data set [1] (label: 5' Cy5); 187 nM in data set [2] (label: 5' Cy5); 276 nM in data set [3] (label: 5' Cy5); 178 nM in data set [4] (label: 5' Cy5); 163 nM in data set [5] (label: 5' Cy5).

On to AUUAUACGUGA (ssRNA) [IR-rpoA-U], for which the equilibrium dissociation constant (Kd) is 136 nM in data set [1] (label: 5' IRDye 800CW); 480 nM in data set [2] (label: 5' IRDye 800CW); 3.54 nM in data set [3] (label: 5' IRDye 800CW); 202 nM in data set [4] (label: 5' IRDye 800CW); 205 nM in data set [5] (label: 5' IRDye 800CW).

AUUACACGUGA (ssRNA) [Cy5-rpoA]: the dissociation constant Kd turned out to be 172 nM in data set [1] (label: 5' Cy5); 231 nM in data set [2] (label: 5' Cy5); 10.5 nM in data set [3] (label: 5' Cy5); 134 nM in data set [4] (label: 5' Cy5); 121 nM in data set [5] (label: 5' Cy5).

These data come from PMC8809517, “Cofactor-independent RNA editing by a synthetic S-type PPR protein”.
